The target in the assay is recombinant gst-fused prohibitin [GST: P08515]. The assay is described as follows: phage binding to gst-prohibitin immobilized on microtiter plate, 10^9 TU, bound TU counted.
Chain of recombinant gst-fused prohibitin [GST: P08515] (P08515 whole entry, the tested form may be a part): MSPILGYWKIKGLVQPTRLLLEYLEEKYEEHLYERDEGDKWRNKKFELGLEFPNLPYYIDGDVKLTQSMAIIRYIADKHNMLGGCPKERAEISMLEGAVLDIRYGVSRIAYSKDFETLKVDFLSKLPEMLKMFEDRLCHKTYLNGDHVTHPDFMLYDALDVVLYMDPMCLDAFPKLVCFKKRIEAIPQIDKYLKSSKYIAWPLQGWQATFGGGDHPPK

As to CKGGRAKDC (peptide, not shown: large carriers, modifications not checked) [… (SEQ ID NO:4)-displaying phage], the fold binding relative to control insertless phage came to 8 fold.
